Entries after “also recorded” stand apart in the source; their conditions may differ.
Experiments:
[1] = test system: HPV-16 enhancer in SiHa cells; assay: Chip assay of H3K9me2 and H3K27me3 at the targeted enhancer; type: cell-based; conditions: harvested after 5 days
Description: FIG. 13: Elucidating the mechanism of transcriptional gene silencing: (A) SiHa cells untreated or treated with TSA were transfected with NFκB+PLAP enhancer-promoter chimera expressing test & scrambled shRNA and harvested after 5 days. Chip was performed with antibodies against H3K9me2 and H3K27me3; antibodies against RNA polymerase and mouse IgG were respectively used as positive and negative controls for pull down. Input and immuno-precipitated DNA were measured by PCR with requisite primers and the enrichment at enhancer region was further quantified by qPCR.
Using chip assay, we assessed the level of histone H3K9 dimethylation (H3K9me2) and H3K27 trimethylation (H3K27me3), two repressive epigenetic marks shown to increase as a result of TGS.

[2] = test system: PLAP positive cell lines (HeLa, SiHa, CaSki, Caco-2); assay: Dual luciferase reporter assay of promoter/enhancer-promoter constructs in PLAP positive cell lines; type: cell-based, human; conditions: for transcriptional activity (relative luciferase activity over pGL3-Basic): PLAP positive cell lines, 48 hours post transfection, normalised by Renilla; for tissue specificity of luciferase expression: PLAP positive versus PLAP negative cell lines; for tissue specificity of luciferase expression / trend of construct activity (strength): FIG. 6; for trend of construct activity (strength): luciferase reporter constructs
Description: (§1) All transfections were performed using Lipofectamine™ 2000 transfection reagent according to manufacturer's instruction (Invitrogen). Briefly, (1×10^6/well) cells were cultured in 6-well plates overnight. The luciferase reporter vectors (PLAP-luc, NFκB+PLAP−luc & pG13 Basic; 1 μg well^−1) were co-transfected in 20:1 ratio with Renilla luciferase expression vector (pRL-TK), an internal control for normalisation of the transcriptional activity of the reporter vectors. Forty-eight hours post transfection, the cells were lysed and luciferase activities were assayed using Dual Luciferase Assay reagents (Promega) according to manufacturer's protocol. All transfections were performed in triplicate and all experiments were repeated at least twice.
(§2) The region of PLAP promoter spanning from −170 to +24 containing invariant TATA boxes (nucleotides −31 to −25) & Sp1 binding sites (nucleotides −84 to −76) cloned in promoter less luciferase expression vector PGL3 basic was transfected in battery of PLAP positive cell cervical cell lines (HeLa, SiHa and CaSki) and appropriate PLAP negative cell lines HepG2 (Hepatoma) & CHO. Promoter activity was assayed in these in vitro model systems by dual luciferase assay.
(§3) To develop an optimal enhancer-promoter system for improving the transcriptional activity of PLAP promoter a fusion construct comprising of PLAP promoter & tetramer of NFKB binding sites cloned in PGL3 basic was evaluated by dual luciferase assay in the above mentioned cell lines. Furthermore, we compared the transcriptional activity of PLAP promoter/enhancer systems with strong SV40 virus promoter (PGL3 C).

[3] = test system: PLAP negative cell lines HepG2 (Hepatoma) & CHO; assay: Dual luciferase reporter assay of promoter/enhancer-promoter constructs in PLAP negative cell lines; type: cell-based; conditions: PLAP negative/control cell lines HepG2 & CHO, 48 hours post transfection
Description: as §1, §2, §3

[4] = listed as NFκB+PLAP promoter enhancer systems

## CC(/C=C/C(=O)NO)=C\[C@@H](C)C(=O)c1ccc(N(C)C)cc1 [trichostatin]
[1]
  levels of H3K9me2 and H3K27me3 at the targeted enhancer: reduced this enrichment

B1: PLAP promoter: human PLAP promoter region −170 to +24 cloned in promoter less luciferase expression vector pGL3 Basic (nucleic acid, listed as Homo sapiens)
DNA: AAGCTGCCTTTCTCAGGACCCCAGCCCCAGCCCAGCCCAGCCACACCCTGCGACTCTCTTCAGCCAGTGTGGCTTCAGGTCAAGAGGCTGGGCGGGGTCAAGGTGGTAACAAGGGGAGGGGCCAGGACACAGTTTTCCCTGATTTAAACCCAGGCAGCCTGGAGTGCAGCTCATACTCCATACCTGGGATTTCCGC
modifications: in pGL3 Basic luciferase vector; DNASequence (1)..(196) Unique PLAP promoter Sequence
notes: human PLAP promoter region −170 to +24 cloned in promoter less luciferase expression vector pGL3 Basic
[2]
  transcriptional activity (relative luciferase activity over pGL3-Basic): of optimum level only in carcinoma cell lines expressing PLAP; also recorded: selective transcriptional activity in all the PLAP positive cell lines
  tissue specificity of luciferase expression: tissue selective expression
  trend of construct activity (strength): NFκB−PLAP Pr>SV40 Pr>PLAP Pr
[3]
  transcriptional activity (relative luciferase activity over pGL3-Basic): little or no activity in the control cell lines; also recorded: not in PLAP negative cell line

B2: NFKB−PLAP enhancer-promoter system: tetramer of NFκB DNA binding sites (GGGAATTTCC) upstream of PLAP promoter −170 to +24 in pGL3 Basic luciferase vector (nucleic acid)
DNA: GGGAATTTCCGGGAATTTCCGGGAATTTCCGGGAATTTCCAAGCTGCCTTTCTCAGGACCCCAGCCCCAGCCCAGCCCAGCCACACCCTGCGACTCTCTTCAGCCAGTGTGGCTTCAGGTCAAGAGGCTGGGCGGGGTCAAGGTGGTAACAAGGGGAGGGGCCAGGACACAGTTTTCCCTGATTTAAACCCAGGCAGCCTGGAGTGCAGCTCATACTCCATACCTGGGATTTCCGC
modifications: in pGL3 Basic luciferase vector; Enhancer (NFKB)-Promoter (PLAP) Sequence.
[2]
  transcriptional activity (relative luciferase activity over pGL3-Basic): selective transcriptional activity in all the PLAP positive cell lines; also recorded: highly comparable to that of strong SV40 virus promoter
  tissue specificity of luciferase expression: tissue selective expression
  trend of construct activity (strength): NFκB−PLAP Pr>SV40 Pr>PLAP Pr
[2]; [4]
  transcriptional activity (relative luciferase activity over pGL3-Basic): of optimum level only in carcinoma cell lines expressing PLAP
[3]
  transcriptional activity (relative luciferase activity over pGL3-Basic): not in PLAP negative cell line
[3]; [4]
  transcriptional activity (relative luciferase activity over pGL3-Basic): little or no activity in the control cell lines

From patent US9868960B2, “Placental like alkaline phosphatase (PLAP) promoter mediated cell targeting” (priority 2013, dated 2018)
